Experimental data taken from paper PMC3569036 (FEBS letters, 2012).

Target: calmodulin (vertebrate CaM amino acid sequence, encoded by a rat cDNA) (rat, UniProt P0DP29 1-149)
Experiment: cryo-EM structure

B1: bovine endothelial nitric oxide synthase (eNOS) with the phosphomimetic S1179D substitution (enzyme)
chain: MGNLKSVGQEPGPPCGLGLGLGLGLCGKQGPASPAPEPSRAPAPATPHAPDHSPAPNSPTLTRPPEGPKFPRVKNWELGSITYDTLCAQSQQDGPCTPRCCLGSLVLPRKLQTRPSPGPPPAEQLLSQARDFINQYYSSIKRSGSQAHEERLQEVEAEVASTGTYHLRESELVFGAKQAWRNAPRCVGRIQWGKLQVFDARDCSSAQEMFTYICNHIKYATNRGNLRSAITVFPQRAPGRGDFRIWNSQLVRYAGYRQQDGSVRGDPANVEITELCIQHGWTPGNGRFDVLPLLLQAPDEAPELFVLPPELVLEVPLEHPTLEWFAALGLRWYALPAVSNMLLEIGGLEFSAAPFSGWYMSTEIGTRNLCDPHRYNILEDVAVCMDLDTRTTSSLWKDKAAVEINLAVLHSFQLAKVTIVDHHAATVSFMKHLDNEQKARGGCPADWAWIVPPISGSLTPVFHQEMVNYILSPAFRYQPDPWKGSATKGAGITRKKTFKEVANAVKISASLMGTLMAKRVKATILYASETGRAQSYAQQLGRLFRKAFDPRVLCMDEYDVVSLEHEALVLVVTSTFGNGDPPENGESFAAALMEMSGPYNSSPRPEQHKSYKIRFNSVSCSDPLVSSWRRKRKESSNTDSAGALGTLRFCVFGLGSRAYPHFCAFARAVDTRLEELGGERLLQLGQGDELCGQEEAFRGWAKAAFQASCETFCVGEEAKAAAQDIFSPKRSWKRQRYRLSTQAEGLQLLPGLIHVHRRKMFQATVLSVENLQSSKSTRATILVRLDTAGQEGLQYQPGDHIGICPPNRPGLVEALLSRVEDPPPPTESVAVEQLEKGSPGGPPPSWVRDPRLPPCTLRQALTFFLDITSPPSPRLLRLLSTLAEEPSEQQELETLSQDPRRYEEWKWFRCPTLLEVLEQFPSVALPAPLLLTQLPLLQPRYYSVSSAPNAHPGEVHLTVAVLAYRTQDGLGPLHYGVCSTWLSQLKTGDPVPCFIRGAPSFRLPPDPYVPCILVGPGTGIAPFRGFWQERLHDIESKGLQPAPMTLVFGCRCSQLDHLYRDEVQDAQERGVFGRVLTAFSREPDSPKTYVQDILRTELAAEVHRVLCLERGHMFVCGDVTMATSVLQTVQRILATEGDMELDEAGDVIGVLRDQQRYHEDIFGLTLRTQEVTSRIRTQDFSLQERHLRGAVPWAFDPPGPDTPGP
binding result: binds
